According to US20190263934A1:

How the values were obtained:
[1] = biological target: biotinylated human FcRn (hFcRn; p51 subunit residues 24-297 with C-terminal Avi-tag, β2-m residues 21-119) (human) (UniProt P55899); assay: Biacore SPR, Biotin CAPture, pH 7.4, 1000 nM antibody, steady state
[2] = biological target: biotinylated human FcRn (hFcRn; p51 subunit residues 24-297 with C-terminal Avi-tag, β2-m residues 21-119) (human) (UniProt P55899); assay: Biacore SPR, human FcRn, pH 6.0 (column 'Affinity, pH 6.0 (nM)')
[3] = biological target: biotinylated human FcRn (hFcRn; p51 subunit residues 24-297 with C-terminal Avi-tag, β2-m residues 21-119) (human) (UniProt P55899); assay: Biacore SPR, Biotin CAPture of biotinylated human FcRn, pH 6.0
[4] = biological target: biotinylated human FcRn (hFcRn; p51 subunit residues 24-297 with C-terminal Avi-tag, β2-m residues 21-119) (human) (UniProt P55899); assay: Biacore SPR, human FcRn, pH 7.4, steady state
[5] = biological target: biotinylated hFcRn (human) (UniProt P55899); assay: Biacore SPR, pH 6.0, bivalent fit
Target sequence in this assay (P55899 24-297, form in doubt, chain 1 of 2): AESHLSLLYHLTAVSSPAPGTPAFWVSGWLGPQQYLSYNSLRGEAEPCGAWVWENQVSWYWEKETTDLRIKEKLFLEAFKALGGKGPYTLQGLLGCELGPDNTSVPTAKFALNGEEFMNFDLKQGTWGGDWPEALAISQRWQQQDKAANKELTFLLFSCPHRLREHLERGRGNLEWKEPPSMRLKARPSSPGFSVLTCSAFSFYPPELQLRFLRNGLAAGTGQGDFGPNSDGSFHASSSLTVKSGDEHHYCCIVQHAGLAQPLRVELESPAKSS
Target sequence in this assay (P61769 21-119, form in doubt, chain 2 of 2, further chain): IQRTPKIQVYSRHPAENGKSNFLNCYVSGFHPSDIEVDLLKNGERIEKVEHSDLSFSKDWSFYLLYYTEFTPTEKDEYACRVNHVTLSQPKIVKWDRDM

rFcRn (rat) [6] = biological target: rFcRn (rat) (UniProt P13599); assay: Biacore SPR, pH 6.0, bivalent fit
Target sequence in this assay (P13599 23-298, form in doubt, chain 1 of 2): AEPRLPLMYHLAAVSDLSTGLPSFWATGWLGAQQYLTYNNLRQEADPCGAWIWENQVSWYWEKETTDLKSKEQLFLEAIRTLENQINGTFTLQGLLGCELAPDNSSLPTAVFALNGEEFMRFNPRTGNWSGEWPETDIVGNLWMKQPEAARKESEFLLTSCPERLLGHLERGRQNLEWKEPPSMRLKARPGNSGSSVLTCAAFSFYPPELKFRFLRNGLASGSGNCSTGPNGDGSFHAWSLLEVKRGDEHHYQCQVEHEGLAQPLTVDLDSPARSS
Target sequence in this assay (P07151 21-119, form in doubt, chain 2 of 2, further chain): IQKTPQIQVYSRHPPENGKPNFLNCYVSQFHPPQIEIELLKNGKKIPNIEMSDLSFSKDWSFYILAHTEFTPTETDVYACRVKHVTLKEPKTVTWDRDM

[7] = biological target: Human CD16a (FcγRIIIa) V158 with C-terminal HPC4 tag (human) (UniProt P08637); assay: Biacore SPR, captured HPC4-tagged FcγRIIIa-V158, steady-state fit
[8] = biological target: biotinylated hFcRn (human) (UniProt P55899); assay: Biacore SPR, pH 7.4, single antibody concentration, steady state
Target sequence in this assay (P55899 24-297, form in doubt, chain 1 of 2): as the sequence (P55899 24-297, form in doubt, chain 1 of 2) above
Target sequence in this assay (P61769 21-119, form in doubt, chain 2 of 2, further chain): as the sequence (P61769 21-119, form in doubt, chain 2 of 2, further chain) above

rFcRn (rat) [9] = biological target: rFcRn (rat) (UniProt P13599); assay: as above
Target sequence in this assay (P13599 23-298, form in doubt, chain 1 of 2): as the sequence (P13599 23-298, form in doubt, chain 1 of 2) above
Target sequence in this assay (P07151 21-119, form in doubt, chain 2 of 2, further chain): as the sequence (P07151 21-119, form in doubt, chain 2 of 2, further chain) above

[10] = biological target: biotinylated hFcRn (human) (UniProt P55899); assay: SPR Biacore, pH 7.4, 1000 nM antibody
Target sequence in this assay (P55899 24-297 limits assumed, form in doubt, chain 1 of 2): as the sequence (P55899 24-297, form in doubt, chain 1 of 2) above
Target sequence in this assay (P61769 21-119 limits assumed, form in doubt, chain 2 of 2, further chain): as the sequence (P61769 21-119, form in doubt, chain 2 of 2, further chain) above

rFcRn (rat) [11] = biological target: rFcRn (rat) (UniProt P13599); assay: SPR Biacore, pH 7.4, 1000 nM antibody
Target sequence in this assay (P13599 23-298 limits assumed, form in doubt, chain 1 of 2): as the sequence (P13599 23-298, form in doubt, chain 1 of 2) above
Target sequence in this assay (P07151 21-119 limits assumed, form in doubt, chain 2 of 2, further chain): as the sequence (P07151 21-119, form in doubt, chain 2 of 2, further chain) above

rFcRn (rat) [12] = biological target: rFcRn (rat) (UniProt P13599); assay: SPR Biacore, pH 6.0
Target sequence in this assay (P13599 23-298 limits assumed, form in doubt, chain 1 of 2): as the sequence (P13599 23-298, form in doubt, chain 1 of 2) above
Target sequence in this assay (P07151 21-119 limits assumed, form in doubt, chain 2 of 2, further chain): as the sequence (P07151 21-119, form in doubt, chain 2 of 2, further chain) above

[13] = biological target: biotinylated hFcRn (human) (UniProt P55899); assay: SPR Biacore, pH 6.0
Target sequence in this assay (P55899 24-297 limits assumed, form in doubt, chain 1 of 2): as the sequence (P55899 24-297, form in doubt, chain 1 of 2) above
Target sequence in this assay (P61769 21-119 limits assumed, form in doubt, chain 2 of 2, further chain): as the sequence (P61769 21-119, form in doubt, chain 2 of 2, further chain) above

[14] = biological target: biotinylated hFcRn (human) (UniProt P55899); assay: SPR Biacore, pH 6.0; remark: listed apart in the source
Target sequence in this assay (P55899 24-297 limits assumed, form in doubt, chain 1 of 2): as the sequence (P55899 24-297, form in doubt, chain 1 of 2) above
Target sequence in this assay (P61769 21-119 limits assumed, form in doubt, chain 2 of 2, further chain): as the sequence (P61769 21-119, form in doubt, chain 2 of 2, further chain) above

rFcRn (rat) [15] = biological target: rFcRn (rat) (UniProt P13599); assay: SPR Biacore, pH 7.4
Target sequence in this assay (P13599 23-298 limits assumed, form in doubt, chain 1 of 2): as the sequence (P13599 23-298, form in doubt, chain 1 of 2) above
Target sequence in this assay (P07151 21-119 limits assumed, form in doubt, chain 2 of 2, further chain): as the sequence (P07151 21-119, form in doubt, chain 2 of 2, further chain) above

[16] = biological target: biotinylated human FcRn (hFcRn; p51 subunit residues 24-297 with C-terminal Avi-tag, β2-m residues 21-119) (human) (UniProt P55899); assay: Biacore SPR; second ratio column (inverse of c7)
[17] = biological target: biotinylated human FcRn (hFcRn; p51 subunit residues 24-297 with C-terminal Avi-tag, β2-m residues 21-119) (human) (UniProt P55899); assay: Biacore SPR; pH 6.0 affinity (M^-1) over pH 7.4 steady state RU
[18] = biological target: biotinylated human FcRn (hFcRn; p51 subunit residues 24-297 with C-terminal Avi-tag, β2-m residues 21-119) (human) (UniProt P55899); assay: Biacore SPR, pH 7.4, steady state, 1000 nM antibody
[19] = biological target: biotinylated human FcRn (hFcRn; p51 subunit residues 24-297 with C-terminal Avi-tag, β2-m residues 21-119) (human) (UniProt P55899); assay: Biacore SPR, pH 6.0, apparent affinity
[20] = biological target: biotinylated hFcRn (human) (UniProt P55899); assay: SPR Biacore, pH 7.4
Target sequence in this assay (P55899 24-297 limits assumed, form in doubt, chain 1 of 2): as the sequence (P55899 24-297, form in doubt, chain 1 of 2) above
Target sequence in this assay (P61769 21-119 limits assumed, form in doubt, chain 2 of 2, further chain): as the sequence (P61769 21-119, form in doubt, chain 2 of 2, further chain) above

rFcRn (rat) [21] = biological target: rFcRn (rat) (UniProt P13599); assay: BLI Octet, pH 6.0, purified antibody
Target sequence in this assay (P13599 23-298 limits assumed, form in doubt, chain 1 of 2): as the sequence (P13599 23-298, form in doubt, chain 1 of 2) above
Target sequence in this assay (P07151 21-119 limits assumed, form in doubt, chain 2 of 2, further chain): as the sequence (P07151 21-119, form in doubt, chain 2 of 2, further chain) above

Sequence of Human CD16a (FcγRIIIa) V158 with C-terminal HPC4 tag (human) (P08637 17-208 F176V): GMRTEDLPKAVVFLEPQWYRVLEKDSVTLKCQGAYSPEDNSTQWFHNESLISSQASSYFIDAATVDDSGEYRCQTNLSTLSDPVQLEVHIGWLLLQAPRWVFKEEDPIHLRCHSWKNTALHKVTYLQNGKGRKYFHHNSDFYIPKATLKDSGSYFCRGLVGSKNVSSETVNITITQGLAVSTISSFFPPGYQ
Sequence of biotinylated human FcRn (hFcRn; p51 subunit residues 24-297 with C-terminal Avi-tag, β2-m residues 21-119) (human) (P55899 24-297, form in doubt, chain 1 of 2): as the sequence (P55899 24-297, form in doubt, chain 1 of 2) above
Sequence of biotinylated human FcRn (hFcRn; p51 subunit residues 24-297 with C-terminal Avi-tag, β2-m residues 21-119) (human) (P61769 21-119, form in doubt, chain 2 of 2, further chain): as the sequence (P61769 21-119, form in doubt, chain 2 of 2, further chain) above

YTEKF benchmark (MST-HN variant; M252Y/S254T/T256E/H433K/N434F) (antibody)
pH 7.4 RU [1]: 89.9 RU
Kd [2]: 14.8 nM
Kd [3]: 14.8 nM
Steady State RU (pH 7.4) [4]: 89.9 RU

mAb1 AAA (T307A/E380A/N434A) (antibody)
Kd [5]: 1780 nM
koff [5]: 0.14 s⁻¹
kon [5]: 84000 M⁻¹ s⁻¹
Kd (rFcRn (rat) [6]): 77 nM
koff (rFcRn (rat) [6]): 0.0117 s⁻¹
kon (rFcRn (rat) [6]): 157000 M⁻¹ s⁻¹
Kd [7]: 450 nM
Steady State RU (pH 7.4) [8]: 13.9 RU
Steady State RU (pH 7.4) (rFcRn (rat) [9]): 23.6 RU

mAb1 E380C (antibody)
Kd (rFcRn (rat) [6]): 6310 nM
Steady State RU [10]: 5.7 RU
Steady State RU (rFcRn (rat) [11]): 27.7 RU
Kd (rFcRn (rat) [12]): 6310 nM

mAb1 K288D (antibody)
Kd (rFcRn (rat) [6]): 149 nM
Steady State RU [10]: 3.8 RU
Steady State RU (rFcRn (rat) [11]): 21.9 RU
Kd (rFcRn (rat) [12]): 149 nM

mAb1 K288N (antibody)
Kd (rFcRn (rat) [6]): 190 nM
Steady State RU (rFcRn (rat) [11]): 20.4 RU
Kd (rFcRn (rat) [12]): 190 nM

mAb1 LS (M428L/N434S) (antibody)
Kd [5]: 272 nM
koff [5]: 0.05 s⁻¹
kon [5]: 193000 M⁻¹ s⁻¹
Kd (rFcRn (rat) [6]): 74 nM
koff (rFcRn (rat) [6]): 0.0066 s⁻¹
kon (rFcRn (rat) [6]): 91000 M⁻¹ s⁻¹
Kd [7]: 369 nM
Steady State RU (pH 7.4) [8]: 18.3 RU
Steady State RU (pH 7.4) (rFcRn (rat) [9]): 24.8 RU

mAb1 M252Y (antibody)
Kd [5]: 3100 nM
Kd (rFcRn (rat) [6]): 25 nM
Steady State RU (rFcRn (rat) [11]): 57.7 RU
Kd [13]: 3100 nM
Kd (rFcRn (rat) [12]): 25 nM
Kd [14]: > 3000 nM
Steady State RU (rFcRn (rat) [15]): 50.5 RU

mAb1 MDQN (T256D/T307Q) (antibody)
Kd [5]: 232 nM
kon [5]: 38000 M⁻¹ s⁻¹
Kd (rFcRn (rat) [6]): 9.5 nM
koff (rFcRn (rat) [6]): 0.0013 s⁻¹
kon (rFcRn (rat) [6]): 13000 M⁻¹ s⁻¹
Kd [7]: 600 nM
Steady State RU (pH 7.4) [8]: 10.7 RU
Steady State RU (pH 7.4) (rFcRn (rat) [9]): 39.1 RU

mAb1 MDWN (T256D/T307W) (antibody)
Kd [5]: 169 nM
kon [5]: 53000 M⁻¹ s⁻¹
Kd (rFcRn (rat) [6]): 8.2 nM
koff (rFcRn (rat) [6]): 0.0013 s⁻¹
kon (rFcRn (rat) [6]): 16000 M⁻¹ s⁻¹
Kd [7]: 512 nM
Steady State RU (pH 7.4) [8]: 12.2 RU
Steady State RU (pH 7.4) (rFcRn (rat) [9]): 42.1 RU

mAb1 MDWY variant (T256D/T307W/N434Y) (antibody)
pH 7.4 RU [1]: 59.8 RU
Ratio (pH 7.4/pH 6.0) [16]: 7.02e-07
Ratio (pH 6.0/pH 7.4) [17]: 1.42e+06
Steady State Binding, pH 7.4 (RU) [18]: 59 RU
Ka [19]: 8.4e+07 M⁻¹
Kd [3]: 18.1 nM

mAb1 N434P (antibody)
Kd (rFcRn (rat) [6]): 194 nM
Steady State RU [10]: 3.5 RU
Steady State RU (rFcRn (rat) [11]): 4.3 RU
Kd (rFcRn (rat) [12]): 194 nM

mAb1 T256D (antibody)
Kd [5]: 6700 nM
Kd (rFcRn (rat) [6]): 86 nM
Steady State RU (rFcRn (rat) [11]): 30.4 RU
Kd [13]: 6700 nM
Kd (rFcRn (rat) [12]): 86 nM
Kd [14]: > 3000 nM
Steady State RU (rFcRn (rat) [15]): 23.2 RU

mAb1 T256E (antibody)
Kd (rFcRn (rat) [6]): 113 nM
Steady State RU [10]: 4.8 RU
Steady State RU (rFcRn (rat) [11]): 23 RU
Kd (rFcRn (rat) [12]): 113 nM
Kd [14]: > 3000 nM
Steady State RU [20]: 4.5 RU
Steady State RU (rFcRn (rat) [15]): 17 RU

mAb1 T307A (antibody)
Kd (rFcRn (rat) [6]): 132 nM
Steady State RU [10]: 5.2 RU
Steady State RU (rFcRn (rat) [11]): 23.1 RU
Kd (rFcRn (rat) [12]): 132 nM

mAb1 T307E (antibody)
Kd [5]: 8130 nM
koff [5]: 0.3 s⁻¹
kon [5]: 44000 M⁻¹ s⁻¹
Kd (rFcRn (rat) [6]): 141 nM
koff (rFcRn (rat) [6]): 0.006 s⁻¹
kon (rFcRn (rat) [6]): 56000 M⁻¹ s⁻¹
Steady State RU [10]: 5.7 RU
Steady State RU (rFcRn (rat) [11]): 21.5 RU
Kd [13]: 8130 nM
koff [13]: 0.298 s⁻¹
kon [13]: 43700 M⁻¹ s⁻¹
Kd (rFcRn (rat) [12]): 141 nM
koff (rFcRn (rat) [12]): 0.00603 s⁻¹
kon (rFcRn (rat) [12]): 55500 M⁻¹ s⁻¹
koff (rFcRn (rat) [21]): 0.00329 s⁻¹

mAb1 T307F (antibody)
Kd (rFcRn (rat) [6]): 131 nM
Steady State RU [10]: 4.9 RU
Steady State RU (rFcRn (rat) [11]): 21.9 RU
Kd (rFcRn (rat) [12]): 131 nM

mAb1 T307M (antibody)
Kd (rFcRn (rat) [6]): 279 nM
Steady State RU [10]: 4.4 RU
Steady State RU (rFcRn (rat) [11]): 15.3 RU
Kd (rFcRn (rat) [12]): 279 nM

mAb1 T307Q (antibody)
Kd [5]: 5720 nM
Kd (rFcRn (rat) [6]): 58 nM
Steady State RU [10]: 6.4 RU
Steady State RU (rFcRn (rat) [11]): 24.3 RU
Kd [13]: 5720 nM
Kd (rFcRn (rat) [12]): 58 nM
Kd [14]: > 3000 nM
Steady State RU [20]: 6.6 RU
Steady State RU (rFcRn (rat) [15]): 31.3 RU
